From patent US8962271B2, “Fructosyl peptidyl oxidase” (Roche Diagnostics Operations, Inc., priority 2009, dated 2015)
Read-outs that look alike come from different tables or passages of the source.

Tests used:
[1] = tested on: fructosyl peptidyl oxidase FPOX-E (Eupenicillum terrenum ATCC 18547; GenBank: BAD00185.1); conditions: cited from earlier work
[2] = tested on: fructosyl peptidyl oxidase FPOX-C (Coniochaeta sp. NISL 9330; GenBank: BAD00186.1); conditions: cited from earlier work
[3] = tested on: CC(C)[C@H](NCC(=O)[C@@H](O)[C@H](O)[C@H](O)CO)C(=O)N[C@@H](Cc1cnc[nH]1)C(=O)O; experiment: purified protein, by the assay type; conditions: other: substrate FVH; apparent Km; 4A.A/TODB/POD
Protocol: (§4) Escherichia coli BL21 (DE3) transformed with pEPN (pET28a-PnFPOX) was grown aerobically at 37° C. in LB medium (7 L) containing 50 μg kanamycin ml^−1. After reaching an A660 nm value of 1.4, the cells were induced with 0.3 mM IPTG, and the incubation was continued at 25° C. until reaching an A660 nm value of 3.0. The cells were harvested by centrifugation and a quarter of harvested cells (approx. 10.5 g) were resuspended in 10 mM PPB, pH 7.0, and lysed by 2 passages through a French press (1,000 kg cm^−2). The lysate was centrifuged at 10,000 g at 4° C. for 20 min, and the supernatant was centrifuged at 40,000 rpm at 4° C. for 90 min. The supernatant was then dialyzed against 10 mM PPB, pH 8.0, containing 25 μM FAD.
(§5) Ammonium sulfate was added to the dialyzed supernatant to 35% saturation and then the precipitate formed was pelleted by centrifugation at 15,000 g for 20 min. The resultant precipitate was dissolved in 10 mM PPB, pH 8.0, containing 25 μM FAD and 1% mannose and dialyzed at 4° C. against the same buffer, and subsequently dialyzed against 10 mM PPB, pH 8.0, containing 25 μM FAD. The dialyzed enzyme solution was applied to a RESOURCE Q column (GE Healthcare) equilibrated with 10 mM PPB, pH 8.0. […] The active flow-through fractions were collected and dialyzed against 10 mM PPB, pH 7.0.
(§6) The dialyzed enzyme solution was applied to a HiLoad 16/60 Superdex 75 pg column (GE Healthcare) equilibrated with 10 mM PPB, pH 7.0. Gel filtration chromatography was carried out with the same buffer. The active fractions were collected, and the purified enzyme solution was dialyzed against 10 mM PPB, pH 7.0 containing 100 μM FAD, and stored at 4° C. The purity of the purified enzyme was confirmed by SDS-PAGE, and the protein concentration was measured using a DC Protein Assay Kit (Bio-Rad, CA, USA).

[4] = tested on: CC(C)[C@H](NCC(=O)[C@@H](O)[C@H](O)[C@H](O)CO)C(=O)O; experiment: purified protein, by the assay type; conditions: other: substrate FV; apparent Km; 4A.A/TODB/POD
Protocol: as §4, §5, §6

[5] = Oxidase activity toward fructosyl hexapeptide without Proteinase N, 4AA/TODB/POD system; format: biochemical
Protocol: (§1) The oxidase activity of the fructosyl peptidyl oxidases PnFPOX and FPOX-C on a fructosyl hexapeptide (F6P: Fru-Val-His-Leu-Thr-Pro-Glu) was assayed without addition of Proteinase N. The enzyme activity was measured in a 4AA/TODB/POD system as described in Example 2, with the substrate concentration of 1 mM for FV and FVH and 5 mM for F6P.

[6] = Oxidase activity, 4AA/TODB/POD system, substrate FV; format: biochemical
Protocol: (§2) The water-soluble fraction was examined for the oxidase activity using a POD/TODB/4A.A. method with three substrates: fructosyl valine (FV), fructosyl lysine (FK), and fructosyl valyl histidine (FVH).
(§3) The oxidase activity was assayed using 4A.A/TODB/POD with varying concentrations of substrates, FV, FK and FVH. The absorbance at 546 nm was monitored. Typical Michaelis-Menten curves were obtained with FV and FVH, but not with FK. […] A high VmaxKm^−1 value for FV (42.8 U mg^−1 mM^−1) indicates high specificity toward FV of this enzyme. It should be noted that VmaxKm^−1 value for FVH is also considerable (14.7 U mg^−1 mM^−1, 34% of VmaxKm^−1 for FV). This activity toward FVH of PnFPOX will be beneficial in the enzyme-based measurement of HbA1c. For comparison, the oxidase activity of known fructosyl peptidyl oxidases (FPOX-C and FPOX-E) was also included in the table (Hirokawa et al. ibid).
as §1

[7] = Oxidase activity, 4AA/TODB/POD system, substrate FK; format: biochemical; conditions: water-soluble fraction; POD/TODB/4A.A. method; in words
Protocol: as §2, §3

[8] = Oxidase activity, 4AA/TODB/POD system, substrate FVH; format: biochemical
Protocol: as §2, §3, §1

[9] = Thermostability: residual activity after heat treatment; format: physicochemical; conditions: heat-treated at 50° C. for 10 minutes in 10 mM PPB (pH 7.0)
Protocol: Thermostability of PnFPOX was evaluated by incubating the purified enzyme solution in 10 mM PPB (pH 7.0) at various temperatures for 10 minutes and then measuring the residual activity. The activity of PnFPOX was maintained about 75% up to 50° C. […] (Hirokawa et al. ibid).

[10] = substrate concentration 1 mM, 4AA/TODB/POD
[11] = water-soluble fraction, POD/TODB/4A.A. method, in words

N[C@@H](CCCCNCC(=O)[C@@H](O)[C@H](O)[C@H](O)CO)C(=O)O [FK, fructosyl lysine]
Vmax ([1]; substrate FK): 0.42 U/mg
Km ([2]; substrate FK): 10600 µM
Vmax ([2]; substrate FK): 23.4 U/mg

CC(C)[C@H](NCC(=O)[C@@H](O)[C@H](O)[C@H](O)CO)C(=O)O [FV, fructosyl valine]
Km ([1]; substrate FV): 318 µM
Vmax ([1]; substrate FV): 20.6 U/mg
Km ([2]; substrate FV): 824 µM
Vmax ([2]; substrate FV): 66.0 U/mg

CC(C)[C@H](NCC(=O)[C@@H](O)[C@H](O)[C@H](O)CO)C(=O)N[C@@H](Cc1cnc[nH]1)C(=O)O [FVH, fructosyl valyl histidine]
Km ([1]; substrate FVH): 2760 µM
Vmax ([1]; substrate FVH): 5.43 U/mg
Km ([2]; substrate FVH): 2810 µM
Vmax ([2]; substrate FVH): 23.8 U/mg

fructosyl peptidyl oxidase PnFPOX from Phaeosphaeria nodorum, SEQ ID NO:1 (recombinant, purified) (Parastagonospora nodorum SN15)
Km [3]: 200 µM
Vmax [3]: 2.97 U/mg
Km [4]: 640 µM
Vmax [4]: 27.6 U/mg

B1: PnFPOX: fructosyl peptidyl oxidase derived from Phaeosphaeria nodorum, amino acid sequence SEQ ID NO:1, recombinant from E. coli (protein, listed as Phaeosphaeria nodorum)
chain: MAPSRANTSVIVVGGGGTIGSSTALHLVRSGYTPSNVTVLDAYPIPSSQSAGNDLNKIMGVSLRNPVDLQLALEARQMWNEDELFKKFFHNTGRLDCAHGEKDIADLKSGYQALVDAGLDATNEWLDSEDEILKRMPLLSRDQIKGWKAIFSKDGGWLAAAKAINAVGEYLRDQGVRFGFYGAGSFKAPLLAEGVCIGVETVDGTRYYADKVVLAAGAWSPTLVELHEQCVSKAWVYGHIQLTPEEAARYKNSPVVYNGDVGFFFEPNEHGVIKVCDEFPGFTRFKMHQPFGAKAPKRISVPRSHAKHPTDTIPDASDVSIRRAIATFMPQFKNKKMFNQAMCWCTDTADAALLICEHPEWKNFVLATGDSGHSFKLLPNIGKHVVELLEGTLADDLAHAWRWRPGSGDALKSRRSAPAKDLADMPGWNHDKPRANL
capability of oxidizing fructosyl hexapeptide ([5]; in words): capable of oxidizing fructosyl hexapeptide
F6P (U/mg) oxidase activity ([5]; substrate concentration 5 mM, without Proteinase N): 1.3 × 10^−3 U/mg
FV (U/mg) oxidase activity [6, 10]: 1.3 U/mg
oxidizing activity to FV [6, 11]: showed oxidizing activity
oxidizing activity to FK [7]: showed oxidizing activity
VmaxKm^−1 for FVH as % of VmaxKm^−1 for FV [8]: 34%
FVH (U/mg) oxidase activity [8, 10]: 0.11 U/mg
oxidizing activity to FVH [8, 11]: showed oxidizing activity
residual activity [9]: about 75%
